The results in this text go back to publication PMC12288466, “EzrA promotes Z-ring formation through interaction of its QNR motif with FtsA” (Journal of Bacteriology, 2025).

By Kd is commonly meant the equilibrium constant for the complex coming apart.

Assay [1] has as its target FtsA of S. suis, bacterial two-hybrid fusion (UniProt A0A0H3MTL7). The assay can be described thus: bacterial two-hybrid, β-galactosidase activity. The conditions noted are these: cultured at 30°C for 16 h; parent: est. 300; read off a plot.
The target of assay [2] is FtsA of E. faecalis, bacterial two-hybrid fusion (UniProt O07111). Briefly: bacterial two-hybrid, β-galactosidase activity. Particulars: cultured at 30°C for 16 h; parent: est. 42; read off a plot.
Sequence of FtsA of E. faecalis, bacterial two-hybrid fusion (O07111 whole entry, the tested form may be a part): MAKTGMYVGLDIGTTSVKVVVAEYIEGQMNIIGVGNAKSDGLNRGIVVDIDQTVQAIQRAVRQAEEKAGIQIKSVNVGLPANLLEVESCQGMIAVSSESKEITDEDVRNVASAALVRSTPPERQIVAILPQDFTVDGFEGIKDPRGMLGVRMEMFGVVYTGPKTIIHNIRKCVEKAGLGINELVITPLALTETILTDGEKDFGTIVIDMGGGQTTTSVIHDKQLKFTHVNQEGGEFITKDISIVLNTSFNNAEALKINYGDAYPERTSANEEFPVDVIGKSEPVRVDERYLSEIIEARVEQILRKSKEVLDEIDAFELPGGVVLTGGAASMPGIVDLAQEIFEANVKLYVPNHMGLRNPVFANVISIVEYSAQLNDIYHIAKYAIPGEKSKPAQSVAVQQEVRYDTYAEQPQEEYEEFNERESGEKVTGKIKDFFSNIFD
Assay [3] has as its target FtsA of B. subtilis, bacterial two-hybrid fusion (UniProt P28264). Briefly: bacterial two-hybrid, β-galactosidase activity. Particulars: cultured at 30°C for 16 h; parent: est. 270; read off a plot.
The target of assay [4] is FtsA of S. pneumoniae, bacterial two-hybrid fusion (UniProt A0A0H2ZPT5). Briefly: bacterial two-hybrid, β-galactosidase activity. Particulars: cultured at 30°C for 16 h; parent: est. 110; read off a plot.
Sequence of FtsA of S. pneumoniae, bacterial two-hybrid fusion (A0A0H2ZPT5 whole entry, the tested form may be a part): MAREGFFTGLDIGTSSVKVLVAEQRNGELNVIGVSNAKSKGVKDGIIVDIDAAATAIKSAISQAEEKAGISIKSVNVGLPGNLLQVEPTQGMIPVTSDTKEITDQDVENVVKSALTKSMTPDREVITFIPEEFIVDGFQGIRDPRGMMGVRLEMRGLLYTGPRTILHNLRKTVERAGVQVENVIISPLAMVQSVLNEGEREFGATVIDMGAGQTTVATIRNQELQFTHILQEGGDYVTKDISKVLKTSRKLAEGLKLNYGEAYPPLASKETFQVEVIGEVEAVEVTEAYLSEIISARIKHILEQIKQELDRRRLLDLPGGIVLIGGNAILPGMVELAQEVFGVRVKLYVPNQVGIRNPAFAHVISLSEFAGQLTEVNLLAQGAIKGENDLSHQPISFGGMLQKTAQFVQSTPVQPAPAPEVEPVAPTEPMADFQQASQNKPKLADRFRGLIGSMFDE
The target in assay [5] is T1, his-tagged FtsA protein (Streptococcus suis, UniProt A0A0H3MTL7 1-459).
T1 chain: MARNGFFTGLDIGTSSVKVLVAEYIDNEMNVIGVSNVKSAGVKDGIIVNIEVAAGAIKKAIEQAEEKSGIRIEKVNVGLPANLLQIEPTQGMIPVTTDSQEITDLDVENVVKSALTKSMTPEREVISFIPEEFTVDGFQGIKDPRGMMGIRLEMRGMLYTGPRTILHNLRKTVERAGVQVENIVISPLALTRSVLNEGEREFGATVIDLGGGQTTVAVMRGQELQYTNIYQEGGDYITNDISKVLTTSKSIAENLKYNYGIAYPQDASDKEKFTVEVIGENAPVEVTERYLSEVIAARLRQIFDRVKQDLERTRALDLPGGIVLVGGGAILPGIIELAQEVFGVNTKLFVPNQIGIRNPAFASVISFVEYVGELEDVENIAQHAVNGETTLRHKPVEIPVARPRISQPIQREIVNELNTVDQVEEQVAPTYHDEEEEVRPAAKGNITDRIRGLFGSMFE
The assay can be described thus: SPR; kinetic fit. (SPR reads the build-up and loss of mass on a sensor chip optically.)

The target in assay [6] is T1, his-tagged FtsA protein. Briefly: SPR; equilibrium (steady-state) fit.
In assay [7] the target is T2, his-tagged FtsA protein (Streptococcus suis, UniProt A0A0H3MTL7 1-459).
T2 construct: FtsA of Streptococcus suis, locus SSU05_0480; It was purified 'in the same way but without the SUMO cleavage step'; source: E. coli BL21 (DE3), pET28a, purified (Ni-NTA)
T2 sequence (looked up): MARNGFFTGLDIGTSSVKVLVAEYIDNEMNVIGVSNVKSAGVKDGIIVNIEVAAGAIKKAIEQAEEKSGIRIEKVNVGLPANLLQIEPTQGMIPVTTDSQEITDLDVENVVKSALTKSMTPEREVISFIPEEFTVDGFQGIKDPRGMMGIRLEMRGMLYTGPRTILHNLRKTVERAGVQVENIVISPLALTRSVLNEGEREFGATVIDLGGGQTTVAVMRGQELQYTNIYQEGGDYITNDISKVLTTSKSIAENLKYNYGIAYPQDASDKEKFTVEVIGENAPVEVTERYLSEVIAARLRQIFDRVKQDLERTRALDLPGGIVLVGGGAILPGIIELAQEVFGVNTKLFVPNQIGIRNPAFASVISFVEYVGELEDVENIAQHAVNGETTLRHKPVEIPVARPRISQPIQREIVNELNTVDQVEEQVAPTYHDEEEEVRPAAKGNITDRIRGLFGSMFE
The assay can be described thus: SPR; Biacore T200; FtsA covalently immobilised on a CM5 chip (700 RU); EzrA_(cyto) or its variant injected at 200 to 3.125 µM in twofold dilutions, 30 µL/min, 25°C; equilibrium response fitted to a 1:1 binding model. The conditions noted are these: both partners purified.

Sequence of FtsA of B. subtilis, bacterial two-hybrid fusion (P28264 whole entry, the tested form may be a part): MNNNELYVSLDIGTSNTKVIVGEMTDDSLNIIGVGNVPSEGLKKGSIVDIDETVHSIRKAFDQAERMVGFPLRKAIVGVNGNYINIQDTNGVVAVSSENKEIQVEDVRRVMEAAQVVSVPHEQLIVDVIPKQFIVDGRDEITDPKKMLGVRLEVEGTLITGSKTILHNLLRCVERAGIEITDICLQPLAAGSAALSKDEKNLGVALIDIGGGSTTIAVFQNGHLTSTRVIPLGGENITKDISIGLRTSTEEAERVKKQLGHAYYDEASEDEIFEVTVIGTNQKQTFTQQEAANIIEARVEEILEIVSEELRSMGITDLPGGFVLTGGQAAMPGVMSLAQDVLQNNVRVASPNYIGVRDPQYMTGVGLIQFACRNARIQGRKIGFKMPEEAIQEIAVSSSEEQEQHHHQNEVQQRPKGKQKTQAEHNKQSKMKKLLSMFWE

As to “EzrA of S. suis, bacterial two-hybrid fusion R514D”, the response in assay [1] worked out at 50 rel.U.

As for “EzrA of Enterococcus faecalis, bacterial two-hybrid fusion (from UniProt Q838R5) QND”, the response in assay [2] came out at 25 rel.U.

For “EzrA of B. subtilis, bacterial two-hybrid fusion (from UniProt O34894) QND”, in assay [3], the response was 38 rel.U.

With “EzrA of S. pneumoniae, bacterial two-hybrid fusion R515D”, in assay [4], the response was determined as 21 rel.U.

B1: cytoplasmic region of EzrA protein of S. suis (domain or fragment, Streptococcus suis, UniProt A4VWI6 27-574, looked up)
chain: RKRNDNLLVALEERKEELFNLPVNEEVETVKALHLIGQSQVSFREWNQKWVDLSLNSFADIENHIFEAEGYNNAFRFVSAKNAIDSIDSQIDLIEEDIASIRQGLMELKEQEEKNSGRVKHALNLFDSLQEAVRENPDSYGETLSELEKQLKNIEVEFSEFVMLNSSGDPIEASEILDKTEEHMIALNQIMDRIPSLIERVTKDFPEQLEDLESGYRKLVEQNYLFTEANIESQFQNIRVSIRENTALIVSFDLDAAEAENEGIQAKIDHLYKVFNREIEANKEAVKISKNLPKFLEHVVQNTQLLDEESQRLNATYLLADSKLSRINQLKARLESIEIVVTESVEDIENPQVAYSILEERLDHSLASLKEIEEEQLVLADYLKSQELSENTARKKATLYINKLHTLKRYMEKRNLPGIPAEFLTNFFRTSDHVEALIAELDYKRINIEVVNRLLENATYDMNQLEELAYLIVQNATLTEQLLQYSNRYRSFDESVQKAFNRSLSIFEKDFDYQAAFEEISFALETVEPGVTERFVRSYEKTREAIRY
notes: EzrA of Streptococcus suis, locus SSU05_1509, cytoplasmic region; also called EzrA_(cyto); source: E. coli BL21 (DE3), pET28a, purified (Ni-NTA, SUMO protease cleavage); not shown: His-SUMO, C-terminal, cleaved
Consider B1, for which the Kd in the assay with his-tagged FtsA protein [5] was 1.91 nM; in the assay with his-tagged FtsA protein [6], 37.2 nM. For the same molecule, in the assay with his-tagged FtsA protein [7], the “fold binding affinity against EzrA^R514D” value is ≥ 10 fold.
